Test results as given in PMC12753239.

How the values were obtained:
[1] = target: zebrafish Ngly2 (amino acids: 45-663) (zebrafish (Danio rerio)); assay: SEC; gel filtration at pH 4.0; elution around 150 kDa
[2] = target: zebrafish Ngly2 (amino acids: 45-663) (zebrafish (Danio rerio)); assay: SEC; gel filtration at pH 8.0; Superdex200 increase 10/300 GL, 20 mM Tris-HCl (pH 8.0), 150 mM NaCl; elution around 150 kDa

stoichiometry N [1]: 2
stoichiometry N [2]: 2
Substance: zebrafish Ngly2 (amino acids: 45-663) (enzyme)
